Changes are numbered by the printed parent chain. Like-named read-outs stand apart in the source and are kept apart here.

The values below come from patent US10766960 (dated 2020).

Common to all, as to experiment: SPR
On the technique in general: SPR reads the build-up and loss of mass on a sensor chip optically.

The target of experiment [1] is T1, FcgRIIb (human, UniProt P31994).
T1 chain: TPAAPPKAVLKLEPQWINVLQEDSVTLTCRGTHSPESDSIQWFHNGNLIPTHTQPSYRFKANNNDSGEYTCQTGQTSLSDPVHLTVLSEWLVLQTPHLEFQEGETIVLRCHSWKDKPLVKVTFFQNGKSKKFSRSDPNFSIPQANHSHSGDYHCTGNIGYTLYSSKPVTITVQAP

Experiment [2] deals with T2, FcgRIIa H (human, UniProt P12318).
T2 chain: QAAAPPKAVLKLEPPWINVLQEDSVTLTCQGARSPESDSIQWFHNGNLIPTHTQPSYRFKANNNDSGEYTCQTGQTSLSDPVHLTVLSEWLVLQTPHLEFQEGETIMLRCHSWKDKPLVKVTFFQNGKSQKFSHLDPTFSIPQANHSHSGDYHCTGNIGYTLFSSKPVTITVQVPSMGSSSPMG

Experiment [3] addresses T3, FcgRIIIa F (human, UniProt P08637).
In experiment [4] the target is T4, FcgRIIIa V (human, UniProt P08637).
For experiment [5], the target named is T5, FcgRIa (human, UniProt P12314).
T5 chain: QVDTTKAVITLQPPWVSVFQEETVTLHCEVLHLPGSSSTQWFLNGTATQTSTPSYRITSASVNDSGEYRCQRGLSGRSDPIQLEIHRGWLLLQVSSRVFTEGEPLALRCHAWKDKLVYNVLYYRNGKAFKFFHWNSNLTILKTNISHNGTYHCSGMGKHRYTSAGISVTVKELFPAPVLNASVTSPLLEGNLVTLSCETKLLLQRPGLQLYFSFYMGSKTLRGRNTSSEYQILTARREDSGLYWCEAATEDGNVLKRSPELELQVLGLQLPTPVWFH

Experiment [6] deals with T6, FcgRIIa R (human, UniProt P12318).
T6 chain: T2 chain with H134R

In experiment [7] the target is T2, FcgRIIa H.
Experiment [8] has as its target T5, FcgRIa.
Experiment [9] addresses T1, FcgRIIb.
In experiment [10] the target is T4, FcgRIIIa V. The source holds these as a separate data set.
Experiment [11] has as its target T3, FcgRIIIa F. The source holds these as a separate data set.
The target of experiment [12] is T6, FcgRIIa R.

T3 sequence (P08637 17-208): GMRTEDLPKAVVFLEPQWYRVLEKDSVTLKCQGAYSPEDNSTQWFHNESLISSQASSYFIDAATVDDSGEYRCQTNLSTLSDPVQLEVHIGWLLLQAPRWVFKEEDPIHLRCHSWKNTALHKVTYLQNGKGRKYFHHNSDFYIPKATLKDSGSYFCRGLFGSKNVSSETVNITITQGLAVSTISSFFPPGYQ
T4 sequence (P08637 17-208 F176V): as the sequence (P08637 17-208) above, with F160V counted along it

B1: H240-Kn120/H240-Hl089/L73-k0 (antibody)
chain 1: QDQLVQSGAEVKKPGASVKVSCKASGFNIKDTYIQWVRQAPGQGLEWMGRIDPLRKQTKYREKFEGRVTITADTSTNTAYMELSSLRSEDTAVYYCVRSGREFDYWGQGTLVTVSSASTKGPSVFPLAPSSKSTSGGTAALGCLVKDYFPEPVTVSWNSGALTSGVHTFPAVLQSSGLYSLSSVVTVPSSSLGTQTYICNVNHKPSNTKVDKKVEPKSCDKTHTCPPCPAPEYYWGPMVFLFPPKPKDTLMISRTPEVTCVVVDVSDEDPEVKFNWYVDGVEVHNAKTKPREEQYNATYRVVSVLTVLHQDWLNGKEYKCKVSNKDLPAPIEKTISKAKGQPREPQVCTLPPSRDELTKNQVSLWCLVKGFYPSDIAVEWESNGQPENNYKTTPPVLDSDGSFFLYSKLTVDKSRWQQGNVFSCSVMHEALHNHYTQKSLSLSP
chain 2: QDQLVQSGAEVKKPGASVKVSCKASGFNIKDTYIQWVRQAPGQGLEWMGRIDPLRKQTKYREKFEGRVTITADTSTNTAYMELSSLRSEDTAVYYCVRSGREFDYWGQGTLVTVSSASTKGPSVFPLAPSSKSTSGGTAALGCLVKDYFPEPVTVSWNSGALTSGVHTFPAVLQSSGLYSLSSVVTVPSSSLGTQTYICNVNHKPSNTKVDKKVEPKSCDKTHTCPPCPAPELLTGPSVFLFPPKPKDTLMISRTPEVTCVVVDVSHEEPEVKFNWYVDGVEVHNAKTKPREEQYNSTYRVVSVLTVLHQDWLNGKEYKCKVSNDALPKPIEETISKAKGQPREPQVYTLPPSRCELTKNQVSLSCAVKGFYPSDIAVEWESNGQPENNYKTTPPVLDSDGSFFLVSKLTVDKSRWQQGNVFSCSVMHEALHNHYTQKSLSLSP
chain 3: DIQMTQSPSSLSASVGDRVTITCRASQDIHKYIAWYQQKPGQAPRLLIQYTSTLQPGVPSRFSGSGSGTDYTFTISSLQPEDIATYYCLQYEQLRTFGGGTKVEIKRTVAAPSVFIFPPSDEQLKSGTASVVCLLNNFYPREAKVQWKVDNALQSGNSQESVTEQDSKDSTYSLSSTLTLSKADYEKHKVYACEVTHQGLSSPVTKSFNRGEC
Regarding B1, the Kd (commonly the equilibrium constant for the complex coming apart) came to 190 nM with FcgRIIb [1]; 41 nM in the experiment with FcgRIIa H [2]; 12 nM in the experiment with FcgRIIIa F [3]; 5.4 nM with FcgRIIIa V [4]; 0.18 nM with FcgRIa [5]; 14 nM in the experiment with FcgRIIa R [6].

B2: H240-Kn120/H240-Hl086/L73-k0 (antibody)
chain 1: B1 chain 1
chain 2: B1 chain 2 with T235I
chain 3: B1 chain 3
In the case of B2, the dissociation constant (Kd) is 480 nM in the experiment with FcgRIIb [1]; 53 nM in the experiment with FcgRIIa H [2]; 33 nM with FcgRIIIa F [3]; 14 nM in the experiment with FcgRIIIa V [4]; 1.4 nM in the experiment with FcgRIa [5]; 22 nM with FcgRIIa R [6].

B3: H240-Kn180/H240-Hl068/L73-k0 (antibody)
chain 1: B1 chain 1 with E293R
chain 2: B1 chain 2 with T235G
chain 3: B1 chain 3
Regarding B3, the Kd came out at 240 nM in the experiment with FcgRIIb [1]; 33 nM with FcgRIIa H [2]; 3.1 nM with FcgRIIIa F [3]; 0.67 nM with FcgRIIIa V [4]; 0.3 nM in the experiment with FcgRIa [5]; 21 nM with FcgRIIa R [6].

B4: GpH7-Kn045/GpH7-Hl048/GpL16-k0 (antibody)
chain 1: QVQLVQSGAEVKKPGASVTVSCKASGYTFTDYEMHWIRQPPGEGLEWIGAIDPKTGDTAYSESFQDRVTLTADKSTSTAYMELSSLTSEDTAVYYCTRFYSYTYWGQGTLVTVSSASTKGPSVFPLAPSSKSTSGGTAALGCLVKDYFPEPVTVSWNSGALTSGVHTFPAVLQSSGLYSLSSVVTVPSSSLGTQTYICNVNHKPSNTKVDKKVEPKSCDKTHTCPPCPAPEYYAGPSVFLFPPKPKDTLMISRTPEVTCVVVDVSDEDPEVKFNWYVDGVEVHNAKTKPREEQYNATYRVVSVLTVLHQDWLNGKEYKCKVSNKALPAPIEKTISKAKGQPREPQVCTLPPSRDELTKNQVSLWCLVKGFYPSDIAVEWESNGQPENNYKTTPPVLDSDGSFFLYSKLTVDKSRWQQGNVFSCSVMHEALHNHYTQKSLSLSP
chain 2: QVQLVQSGAEVKKPGASVTVSCKASGYTFTDYEMHWIRQPPGEGLEWIGAIDPKTGDTAYSESFQDRVTLTADKSTSTAYMELSSLTSEDTAVYYCTRFYSYTYWGQGTLVTVSSASTKGPSVFPLAPSSKSTSGGTAALGCLVKDYFPEPVTVSWNSGALTSGVHTFPAVLQSSGLYSLSSVVTVPSSSLGTQTYICNVNHKPSNTKVDKKVEPKSCDKTHTCPPCPAPELLAGPDVFLFPPKPKDTLMISRTPEVTCVVVDVSHEDPEVKFNWYVDGVEVHNAKTKPREEQYNSTYRVVSVLTVLHQDWLNGKEYKCKVSNKALPKPEEKTISKAKGQPREPQVYTLPPSRCELTKNQVSLSCAVKGFYPSDIAVEWESNGQPENNYKTTPPVLDSDGSFFLVSKLTVDKSRWQQGNVFSCSVMHEALHNHYTQKSLSLSP
chain 3: DIVMTQSPLSLPVTPGEPASISCQASESLVHSNRNTYLHWYLQKPGQSPQLLIYKVSNRFSGVPDRFSGSGSGTDFTLKISRVEAEDVGVYYCSQNTHVPPTFGQGTKVEIERTVAAPSVFIFPPSDEQLKSGTASVVCLLNNFYPREAKVQWKVDNALQSGNSQESVTEQDSKDSTYSLSSTLTLSKADYEKHKVYACEVTHQGLSSPVTKSFNRGEC
Regarding B4, the Kd with FcgRIIa H [7] is 11 nM; with FcgRIa [8], 0.019 nM; with FcgRIIb [9], 110 nM; in the experiment with FcgRIIIa V [10] it was 1.3 nM; in the experiment with FcgRIIIa F [11] it was 3.7 nM; with FcgRIIa R [12], 4.8 nM.

B5: GpH7-Kn045/GpH7-Hl055/GpL16-k0 (antibody)
chain 1: B4 chain 1
chain 2: B4 chain 2 with Q293L, K328M
chain 3: B4 chain 3
As to B5, the Kd with FcgRIIa H [7] was 29 nM; with FcgRIa [8], 0.019 nM; in the experiment with FcgRIIb [9], 240 nM; in the experiment with FcgRIIIa V [10] it was 0.72 nM; with FcgRIIIa F [11], 1.6 nM; with FcgRIIa R [12], 13 nM.

B6: GpH7-Kn032/GpH7-Hl032/GpL16-k0 (antibody)
chain 1: B4 chain 2 with A234G, K328L, Y347C, C354D, S364W, A366L, V405Y
chain 2: B4 chain 2 with A234G, K328L
chain 3: B4 chain 3
Regarding B6, the Kd stood at 470 nM in the experiment with FcgRIIa H [7]; 0.0028 nM in the experiment with FcgRIa [8]; 440 nM in the experiment with FcgRIIb [9]; 1.2 nM with FcgRIIIa V [10]; 4.1 nM with FcgRIIIa F [11]; 250 nM with FcgRIIa R [12].

B7: GpH7-Kn033/GpH7-Hl033/GpL16-k0 (antibody)
chain 1: not shown
chain 2: not shown
chain 3: B4 chain 3
With B7, the Kd with FcgRIIa H [7] worked out at 590 nM; with FcgRIa [8], 0.069 nM; with FcgRIIb [9], 3600 nM; in the experiment with FcgRIIIa V [10], 220 nM; with FcgRIIIa F [11], 1600 nM; in the experiment with FcgRIIa R [12], 740 nM.

B8: GpH7-Kn056/GpH7-Hl055/GpL16-k0 (antibody)
chain 1: B4 chain 1 with Q293L
chain 2: B4 chain 2 with Q293L, K328M
chain 3: B4 chain 3
With B8, the Kd in the experiment with FcgRIIa H [7] was found to be 30 nM; with FcgRIa [8], 0.023 nM; with FcgRIIb [9] it was 260 nM; in the experiment with FcgRIIIa V [10], 0.66 nM; with FcgRIIIa F [11], 1.4 nM; with FcgRIIa R [12] it was 17 nM.

B9: GpH7-Kn037/GpH7-Hl036/GpL16-k0 (antibody)
chain 1: B4 chain 2 with K328A, Y347C, C354D, S364W, A366L, V405Y
chain 2: B4 chain 2 with K328A
chain 3: B4 chain 3
In the case of B9, the Kd is 27 nM in the experiment with FcgRIIa H [7]; 0.012 nM with FcgRIa [8]; 230 nM in the experiment with FcgRIIb [9]; 2.6 nM with FcgRIIIa V [10]; 9.7 nM in the experiment with FcgRIIIa F [11]; 17 nM in the experiment with FcgRIIa R [12].
